Substitutions are numbered along the chain they refer to. Numbers in names are those of the source.
Key:
[1] = target: MBP-Spc72^231-268 (C. albicans) (UniProt Q5AGV5); assay: SEC; MBP-CM1 constructs at 100 µM
[2] = target: the molecule itself; assay: cryo-EM structure; γ-TuSC/Spc72^1-599/FLAG-Stu2 complex purified via FLAG-Stu2; single particle analysis, γ-TuSC unit within oligomers at 3.6 Å, 14-spoked ring at 8.2 Å
[3] = target: T1, γ-tubulin small complex (γ-TuSC) from C. albicans: His-Spc97, His-Spc98, γ-tubulin (Tub4) (C. albicans, UniProt Q59PZ2 1-871; A0A1D8PS42 1-785; O93807 1-502); assay: SEC; FLAG-purified γ-TuSC/His-Spc72^1-599/FLAG-Stu2 on Superose 6 Increase 10/300 in HB100 buffer (40 mM K-HEPES pH 7.4, 100 mM KCl); fractions by SDS-PAGE, Western blot and gel densitometry; ring-like oligomers also seen by negative stain EM; conditions: both partners purified
T1 construct: Spc97 (homologue of human GCP2), C. albicans; Spc98 (homologue of human GCP3), C. albicans; γ-tubulin (Tub4), C. albicans; For MST the purified γ-TuSC was labelled with an amine-reactive dye (GREEN-NHS kit); also called γ-TuSC unit; γ-TuRC (as ring of seven γ-TuSCs); source: Sf21 insect cells (baculovirus); copies: 1 + 1 + 2

[4] = target: T2, FLAG-Stu2 (C. albicans, full length) (C. albicans, UniProt A0A1D8PTZ8 1-924); assay: pull-down; FLAG-Stu2 variants from insect cell lysate on anti-FLAG M2 gel, washed, then 20 µg purified Spc72 fragments from E. coli added for 1 h; 200 mM NaCl; eluted with 3xFLAG peptide, Western blot; also called IP or co-IP; conditions: both partners purified
T2 construct: Stu2, C. albicans, full-length Met1 to Glu924; FLAG tag followed by an HRV 3C cleavage site at the 5' end; also called wild-type FLAG-Stu2; source: Sf21 insect cells; not shown: FLAG, N-terminal, kept
T2 sequence (looked up): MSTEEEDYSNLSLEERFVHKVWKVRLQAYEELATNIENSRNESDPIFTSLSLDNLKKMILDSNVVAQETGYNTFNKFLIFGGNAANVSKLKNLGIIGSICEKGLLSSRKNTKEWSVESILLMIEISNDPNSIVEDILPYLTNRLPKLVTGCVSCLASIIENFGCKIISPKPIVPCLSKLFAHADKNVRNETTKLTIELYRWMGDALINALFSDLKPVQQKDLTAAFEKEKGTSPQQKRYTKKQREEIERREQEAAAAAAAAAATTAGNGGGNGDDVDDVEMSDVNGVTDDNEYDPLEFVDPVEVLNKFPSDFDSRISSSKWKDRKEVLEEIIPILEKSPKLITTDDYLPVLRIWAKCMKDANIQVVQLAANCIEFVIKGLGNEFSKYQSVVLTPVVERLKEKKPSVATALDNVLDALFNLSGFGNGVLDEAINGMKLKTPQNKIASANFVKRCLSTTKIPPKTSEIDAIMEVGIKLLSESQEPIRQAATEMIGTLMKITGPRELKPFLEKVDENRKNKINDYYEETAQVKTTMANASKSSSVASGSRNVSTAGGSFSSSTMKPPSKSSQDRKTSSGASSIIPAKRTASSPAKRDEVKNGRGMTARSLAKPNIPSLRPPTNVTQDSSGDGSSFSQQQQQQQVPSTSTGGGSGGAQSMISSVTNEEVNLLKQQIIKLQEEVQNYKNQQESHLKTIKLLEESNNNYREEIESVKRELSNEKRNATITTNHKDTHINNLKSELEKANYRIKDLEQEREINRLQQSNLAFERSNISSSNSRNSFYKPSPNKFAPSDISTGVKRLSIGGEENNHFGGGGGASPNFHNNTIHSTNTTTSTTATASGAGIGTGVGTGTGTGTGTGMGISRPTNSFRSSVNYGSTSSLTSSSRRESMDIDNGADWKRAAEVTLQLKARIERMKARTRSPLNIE

[5] = target: T3, FLAG-Stu2^∆666-768 (coiled-coil deletion mutant) (C. albicans, UniProt A0A1D8PTZ8 1-924, ∆666-768); assay: as above; conditions: both partners purified
T3 construct: Stu2, C. albicans (Met1 to Glu924), coiled-coil region 666-768 deleted
T3 sequence: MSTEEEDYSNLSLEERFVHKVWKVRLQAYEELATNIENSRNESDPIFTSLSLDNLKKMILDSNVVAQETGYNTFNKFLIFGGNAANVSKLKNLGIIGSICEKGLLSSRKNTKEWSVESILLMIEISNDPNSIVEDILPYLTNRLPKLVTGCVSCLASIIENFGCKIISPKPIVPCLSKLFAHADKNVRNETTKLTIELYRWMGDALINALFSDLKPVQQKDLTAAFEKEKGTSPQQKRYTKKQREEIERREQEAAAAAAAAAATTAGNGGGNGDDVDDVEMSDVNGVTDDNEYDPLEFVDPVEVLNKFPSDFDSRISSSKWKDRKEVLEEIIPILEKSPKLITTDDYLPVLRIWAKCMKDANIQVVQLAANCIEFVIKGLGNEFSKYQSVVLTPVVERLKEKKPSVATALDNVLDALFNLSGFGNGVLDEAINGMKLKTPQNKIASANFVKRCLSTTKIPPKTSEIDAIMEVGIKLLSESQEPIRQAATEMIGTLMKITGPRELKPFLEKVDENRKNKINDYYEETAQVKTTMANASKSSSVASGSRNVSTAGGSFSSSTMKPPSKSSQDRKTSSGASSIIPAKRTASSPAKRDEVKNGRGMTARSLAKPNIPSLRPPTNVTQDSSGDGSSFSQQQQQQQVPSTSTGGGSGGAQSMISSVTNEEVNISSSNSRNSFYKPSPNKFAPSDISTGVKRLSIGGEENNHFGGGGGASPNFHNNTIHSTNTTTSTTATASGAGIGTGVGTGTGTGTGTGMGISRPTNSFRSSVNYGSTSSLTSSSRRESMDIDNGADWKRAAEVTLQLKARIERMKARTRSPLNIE

[6] = target: T4, FLAG-tagged γ-TuSC (FLAG-Spc98, His-Spc97, γ-tubulin) (C. albicans, UniProt A0A1D8PS42 1-785; Q59PZ2 1-871; O93807 1-502); assay: pull-down; FLAG-γ-TuSC (FLAG-Spc98) from insect cell lysate on anti-FLAG M2 gel, washed, then 20 µg purified His-Spc72 added for 1 h; 150 mM NaCl; eluted with 3xFLAG peptide, Western blot; called co-IP in the text; conditions: both partners purified
T4 construct: Spc98, C. albicans; Spc97, C. albicans; γ-tubulin (Tub4), C. albicans; also called FLAG-γ-TuSC; copies: + +

[7] = target: the molecule itself; assay: SEC-MALS + other: mass photometry; FLAG-Stu2 (10 µM) and His-Spc72^291-599 (60 µM) alone or mixed 1:1 (vol), Superdex 200 Increase 5/150, 50 mM Tris-HCl pH 7.5, 150 mM NaCl, room temperature; mass photometry below 40 nM
[8] = target: γ-tubulin small complex (γ-TuSC) from C. albicans: His-Spc97, His-Spc98, γ-tubulin (Tub4) (C. albicans, UniProt Q59PZ2 1-871; A0A1D8PS42 1-785; O93807 1-502); assay: MST
[9] = target: GST-CM1^231-268 (GST-Spc72^231-268) (C. albicans) (UniProt Q5AGV5); assay: mass photometry; MBP-CM1 and GST-CM1 constructs diluted to below 40 nM in SEC buffer; for the GST constructs: GST-mediated dimers to tetramers

Molecule: MBP-Spc72^231-268 (from UniProt Q5AGV5 231-268) (domain or fragment)
- stoichiometry N [1]: 2

B1: His-Spc72^1-599 (C. albicans), co-expressed in insect cells (domain or fragment, UniProt Q5AGV5 1-599, looked up)
chain: MSNLSINESNDNSNVSILSNKSGAQSSTNSSPNLIVFKQPEDLSIQLQQQQQGTQEDTPEEEEEEEEEMEQITQLEVQQENQPDTLSSSPFISRPNSPLDDIIRPQGTSSPSLTIRDSYSSQVDINISNLHKSLNEMRLSTDPVDNNNNNNKVNKNNPTNSDISNDDIITIDNLTPSRIQPKNISPWRQFRPTLRGSPESTPRSLFQNKPNLKFNNGLSPTNGSRDMVTNNIATTTKSREEELNKRIVNYKIQLKLMKNFLQELIDRNNLDPHEFHTLLRRNNNNIMNNENNPLSTSLSQTSTLEIQHQNLQIELDEALELNKQLYNKIETANKEISDKDLQISNYESRINLINYSVDELIYILINEYDKNNYSHGGSNTTSPGKETLQQSISAQLEVKLNVLKLELMTRLDQSHQYNNKPHDLFTPPYTSSEYGVSTNNVANKNDLEGYIHIIEDLIKTVDELELTCENYKANKNELQNQLVEQINESIRIKNNFQIMSNKFNQLRQSLSEKENDKNLDEFSKNNHQQQQQQQIQQLEQKLIEYEKCITILQDELDQYKQPSDTTNTTNNNNNNNNNNNRSSYSSYNNHRNSSLNELN
notes: Only the CM1 motif is resolved in the cryo-EM map, as a parallel dimeric coiled coil; source: Sf21 insect cells, MultiBac co-expression with γ-TuSC components and FLAG-Stu2 or His-GFP-Mzt1
- stoichiometry N [2]: 2
- stoichiometry N [3]: ~2 Spc72^1-599 per γ-TuSC (Spc97:Spc98:γ-tubulin:Spc72^1-599)

B2: His-Spc72^1-599 (C. albicans), from E. coli (domain or fragment, UniProt Q5AGV5 1-599, looked up)
chain: B1 chain
notes: source: E. coli BL21 CodonPlus-RIL, purified (Ni-TED); not shown: His6, N-terminal, kept
- binding result [4]: binds
- binding result [5]: binds

B3: His-Spc72^1-599,3R (L243R/I247R/L254R), from E. coli (domain or fragment)
chain: B1 chain with L243R, I247R, L254R
notes: The cloning of the E. coli construct of this mutant is not described; also called Spc72^3R mutant; source: E. coli BL21 CodonPlus-RIL, purified (Ni-TED)
- fold lower binding efficiency compared to Spc72^1-599 [6]: 1.7 fold

B4: His-Spc72^291-599 (domain or fragment, C. albicans, UniProt Q5AGV5 291-599, looked up)
chain: NNPLSTSLSQTSTLEIQHQNLQIELDEALELNKQLYNKIETANKEISDKDLQISNYESRINLINYSVDELIYILINEYDKNNYSHGGSNTTSPGKETLQQSISAQLEVKLNVLKLELMTRLDQSHQYNNKPHDLFTPPYTSSEYGVSTNNVANKNDLEGYIHIIEDLIKTVDELELTCENYKANKNELQNQLVEQINESIRIKNNFQIMSNKFNQLRQSLSEKENDKNLDEFSKNNHQQQQQQQIQQLEQKLIEYEKCITILQDELDQYKQPSDTTNTTNNNNNNNNNNNRSSYSSYNNHRNSSLNELN
notes: source: E. coli, purified (Ni-TED for pull-downs; Ni-NTA and SEC for HX-MS, SEC-MALS and mass photometry); not shown: His6, N-terminal, kept
- stoichiometry N [7]: 2

B5: γ-tubulin (Tub4), C. albicans (natural protein, UniProt O93807 1-502, looked up)
chain: MPGETITLQVGQCGNQVGLQYWQQLATEHGIQSDGSSTPYPKDINDLQLQELNNSGSSPQSYPQQTKPNGKYRNDHPELFFTLSDSNTYTPRSILIDMEPSVIAKSTSALPMFNPRNVHLSNQGNGAANNWINGYKYGTEEEETLLNLIDREVDKCDNLSNFQLFHSVAGGTGSGVGSKMLEVISDRYGHKKLLNTFSIFPSNEDTSDVVVQPYNTILTLKRLIDYSDATFVFHNDSLNRIENILFNNNSNIQHDDNDLFLGANKLIALVSASVSNPLRFPGYMYSSMESIVSNLIPTPDLKFLTSSIAPFSTQKHNYLNEYDMLLELSNDRYKTNRVGGDTSYISMLNYLIGYNLDQREIRKGILKSQQRISFVPWVARSVLVVHGKKSPYLKNTNLEGIQVTNNTSMIDVFTKILKQFDLLIKRKAYLNRYYSSVEEENEVMEMFNESRESVKSIIDEYKACKEITYLDDDDEDDLEDGDGGGGGNGNGYNNIDDADMGI
notes: γ-tubulin (Tub4), C. albicans; Subunit of m1, written alone for the contacts in the cryo-EM structure
- binding result [2]: binds

B6: His-GFP-Spc72^430-480 (domain or fragment, C. albicans, UniProt Q5AGV5 430-480, looked up)
chain: TSSEYGVSTNNVANKNDLEGYIHIIEDLIKTVDELELTCENYKANKNELQN
notes: Spc72, C. albicans, codons 430-480; source: E. coli BL21 CodonPlus-RIL; not shown: GFP, N-terminal, kept
- binding result [4]: binds

B7: His-GFP-Spc72^429-599 (domain or fragment, C. albicans, UniProt Q5AGV5 429-599, looked up)
chain: YTSSEYGVSTNNVANKNDLEGYIHIIEDLIKTVDELELTCENYKANKNELQNQLVEQINESIRIKNNFQIMSNKFNQLRQSLSEKENDKNLDEFSKNNHQQQQQQQIQQLEQKLIEYEKCITILQDELDQYKQPSDTTNTTNNNNNNNNNNNRSSYSSYNNHRNSSLNELN
notes: also called second coiled-coil module; source: E. coli BL21 CodonPlus-RIL, purified (Ni-TED); not shown: GFP, N-terminal, kept
- binding result [4]: binds

B8: His-GFP-Spc72^300-350 (domain or fragment, C. albicans, UniProt Q5AGV5 300-350, looked up)
chain: QTSTLEIQHQNLQIELDEALELNKQLYNKIETANKEISDKDLQISNYESRI
notes: Spc72, C. albicans, codons 300-350; source: E. coli BL21 CodonPlus-RIL; not shown: GFP, N-terminal, kept
- binding result [4]: binds

Molecule: NIATTTKSREEELNKRIVNYKIQLKLMKNFLQELIDRN (domain or fragment) [GST-CM1^231-268 (GST-Spc72^231-268)]
- Kd [8]: 105 nM
- stoichiometry N [9]: 4

— paper PMC11701102, “Structural insights into the interplay between microtubule polymerases, γ-tubulin complexes and their receptors” (Nature Communications, 2025)
